The values that follow come from patent US20040014939.

This data set relates to T1, synthetic substrate Mcc-Pro-Leu-Gly-Pro-D-Lys(DNP)-OH.
T1 sequence: PLGPK

“luciferase as a fusion protein with 6×His tag”: the “enzyme activity (fluorescence intensity, excitation 345±10 nm, emission 425±10 nm, 37° C. for 1 h)” value was “the enzyme activity was not detected in the water-soluble fraction in the case of a control in which luciferase gene was introduced into the similar expression vector”.
